Experiments:
[1] = target: integrin αIIbβ3 of human platelets (human (endogenous in platelets)) (UniProt P08514)
[2] = target: integrin αIIbβ3 of human platelets (human (endogenous in platelets)) (UniProt P08514); test: flow cytometry on cells

Q: For “Rhodostomin (Rho), recombinant, ^48PRGDMP-^65PRYH (natural protein)”, which IC50 of inhibition of platelet aggregation [1] is on record?
A: The IC50 of inhibition of platelet aggregation was 83.2 nM.

Q: And the IC50 [2]?
A: Its IC50 is 90.8 nM.

From publication PMC5388508
